Experimental data: PMC2741639 (Microbiological research, 2008)

Target: the molecule itself
Test: native gel or EMSA

B1: His-tagged Sbm (enzyme, E. coli, UniProt P27253 1-714, looked up)
chain: MSNVQEWQQLANKELSRREKTVDSLVHQTAEGIAIKPLYTEADLDNLEVTGTLPGLPPYVRGPRATMYTAQPWTIRQYAGFSTAKESNAFYRRNLAAGQKGLSVAFDLATHRGYDSDNPRVAGDVGKAGVAIDTVEDMKVLFDQIPLDKMSVSMTMNGAVLPVLAFYIVAAEEQGVTPDKLTGTIQNDILKEYLCRNTYIYPPKPSMRIIADIIAWCSGNMPRFNTISISGYHMGEAGANCVQQVAFTLADGIEYIKAAISAGLKIDDFAPRLSFFFGIGMDLFMNVAMLRAARYLWSEAVSGFGAQDPKSLALRTHCQTSGWSLTEQDPYNNVIRTTIEALAATLGGTQSLHTNAFDEALGLPTDFSARIARNTQIIIQEESELCRTVDPLAGSYYIESLTDQIVKQARAIIQQIDEAGGMAKAIEAGLPKRMIEEASAREQSLIDQGKRVIVGVNKYKLDHEDETDVLEIDNVMVRNEQIASLERIRATRDDAAVTAALNALTHAAQHNENLLAAAVNAARVRATLGEISDALEVAFDRYLVPSQCVTGVIAQSYHQSEKSASEFDAIVAQTEQFLADNGRRPRILIAKMGQDGHDRGAKVIASAYSDLGFDVDLSPMFSTPEEIARLAVENDVHVVGASSLAAGHKTLIPELVEALKKWGREDICVVAGGVIPPQDYAFLQERGVAAIYGPGTPMLDSVRDVLNLISQHHD
stoichiometry N: 2
